Assay results published in paper PMC2788865.

Key:
[1] = molecular target: phospho-Thr^286-αCaMKII (mouse) (UniProt P11798); assay: fluorescence polarisation
calmodulin (CaM) = assay: FL-CaM fluorescence polarisation; settings: reference: αCaMKII with Ca2+/FL-CaM, no ATP; sites T286

Chain of phospho-Thr^286-αCaMKII (mouse) (P11798 whole entry): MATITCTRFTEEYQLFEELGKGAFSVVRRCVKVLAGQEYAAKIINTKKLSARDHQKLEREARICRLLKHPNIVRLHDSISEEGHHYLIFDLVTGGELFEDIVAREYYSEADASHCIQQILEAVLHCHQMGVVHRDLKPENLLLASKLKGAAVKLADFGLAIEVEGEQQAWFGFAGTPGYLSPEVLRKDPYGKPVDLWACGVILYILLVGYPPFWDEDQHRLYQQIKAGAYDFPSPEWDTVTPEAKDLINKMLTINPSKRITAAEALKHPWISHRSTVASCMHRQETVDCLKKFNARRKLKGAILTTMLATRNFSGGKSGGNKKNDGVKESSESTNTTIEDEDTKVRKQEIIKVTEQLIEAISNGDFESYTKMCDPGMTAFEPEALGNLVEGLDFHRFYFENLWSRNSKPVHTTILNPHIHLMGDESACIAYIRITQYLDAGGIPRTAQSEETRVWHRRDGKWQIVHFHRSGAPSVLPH
Chain of αCaMKII (P11798 whole entry, looked up, change not shown): as the sequence (P11798 whole entry) above

Row | rate constant of CaM dissociation (polarization, slow phase) after EGTA [1] | other: fluorescence polarisation of FL-CaM (calmodulin (CaM)) | Substance
1 | 0.02 s⁻¹ | – | Lys^75-FL-calmodulin (FL-CaM) (from UniProt P0DP23 1-149) (natural protein)
2 | – | stronger; reference 0.33 | αCaMKII (from UniProt P11798) αCaMKII with Ca2+/FL-CaM and ATP (autophosphorylated)
